{"source": "paper PMC8993412", "about": "(Journal of Molecular Biology, 2022)", "target": "SARS-CoV-2 nucleocapsid (N) protein, full-length (recombinant) (SARS-CoV-2, reference, UniProt P0DTC9)", "test": "ELISA"}
{"binder": "IgG 16485 (anti-N) (antibody, V domains shown) VH: EVQLVESGGGLVQPGGSLRLSCAASGFNIYSSSIHWVRQAPGKGLEWVAYISSYSGYTSYADSVKGRFTISADTSKNTAYLQMNSLRAEDTAVYYCARVPWYYAYSFGFFASFGGMDYWGQGTLVTVSS VL: DIQMTQSPSSLSASVGDRVTITCRASQSVSSAVAWYQQKPGKAPKLLIYSASSLYSGVPSRFSGSRSGTDFTLTISSLQPEDFATYYCQQYSGYHFFPITFGQGTKVEIK", "values": [{"measurement": "EC50", "result": 19, "unit": "nM"}]}
